What was measured:
[1] = biological target: T1, 23mer peptide P23 (MTDFYVPVSLCTPSRAALLTGRS)
T1 chain: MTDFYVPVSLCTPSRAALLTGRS

[2] = biological target: T2, Formylglycine Generating Enzyme (FGE) purified from bovine testis microsomes (reticuloplasm) (bovine, UniProt Q0P5L5 34-374, N-glycosylated (bound to Concanavalin A)); test: affinity chromatography on peptide-derivatized Affigel 10, FGE activity from bovine testis
T2 construct: mature; Native enzyme at several stages of purification (microsome extract, MonoQ pool, ConA eluate); also called bovine FGE; FGE activity
T2 sequence (looked up): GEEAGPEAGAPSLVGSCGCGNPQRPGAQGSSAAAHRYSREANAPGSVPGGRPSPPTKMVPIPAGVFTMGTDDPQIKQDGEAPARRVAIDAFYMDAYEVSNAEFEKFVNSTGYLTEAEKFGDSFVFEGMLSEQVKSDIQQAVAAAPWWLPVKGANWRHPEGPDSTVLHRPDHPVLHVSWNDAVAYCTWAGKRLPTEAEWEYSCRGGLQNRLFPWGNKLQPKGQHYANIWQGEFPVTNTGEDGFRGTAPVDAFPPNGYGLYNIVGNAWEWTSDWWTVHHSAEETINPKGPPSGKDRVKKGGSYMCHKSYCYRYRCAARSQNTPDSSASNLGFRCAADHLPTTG
Source text: (§1) For purification of FGE the soluble fraction (reticuloplasm) of bovine testis microsomes served as the starting material. The specific activity of FGE was 10-20 times higher than that in reticuloplasm from bovine pancreas microsomes (Fey et al., J. Biol. Chem., 2001, 276:47021-47028). Purification of FGE was achieved by a combination of four chromatographic steps. The first two steps were chromatography on a MonoQ anion exchanger and on Concanavalin A-Sepharose. At pH 8 the FGE activity bound to MonoQ and was eluted at 50-165 mM NaCl with 60-90% recovery. When this fraction was mixed with Concanavalin A-Sepharose, FGE was bound. 30-40% of the starting activity could be eluted with 0.5 M a-methyl mannoside. The two final purification steps were chromatography on affinity matrices derivatized with 16mer peptides. The first affinity matrix was Affigel 10 substituted with a variant of the ASA65-80 peptide, in which residues Cys69, Pro7l and Arg73, critical for FGly formation, were scrambled (scrambled peptide […] -SEQ ID NO:34). […] Chromatography on the scrambled peptide affinity matrix removed peptide binding proteins including chaperones of the endoplasmic reticulum. The second affinity matrix was Affigel 10 substituted with a variant of the ASA65-80 peptide, in which the Cys69 was replaced by a serine (Ser69 peptide […]-SEQ ID NO:35).

[3] = biological target: T2, Formylglycine Generating Enzyme (FGE) …; test: affinity chromatography, peptide on Affigel 10, FGE from bovine testis
Source text: as §1

B1: Formylglycine Generating Enzyme (FGE) purified from bovine testis microsomes (reticuloplasm) (protein)
chain: T2 sequence (looked up)
B1 was tested, and the “conversion of P23 into a FGly containing derivative (MALDI-TOF)” value [1] was “converted up to 95% of the peptide into a FGly containing derivative” and the km [1] was “The km for P23 was 13 nM”.

B2: scrambled peptide PVSLPTRSCAALLTGR (peptide)
peptide: PVSLPTRSCAALLTGR
notes: also called scrambled oligopeptide; variant of the ASA65-80 peptide in which residues Cys69, Pro71 and Arg73 were scrambled
B2: no binding [2].

B3: wildtype ASA65-80 peptide (synthetic 16mer corresponding to arylsulfatase A residues 65-80) (peptide)
peptide: PVSLCTPSRAALLTGR
notes: They follow from P23 and from the Ser69 peptide, which is the Cys69 to Ser variant
B3: binds [3].

B4: Ser69 peptide PVSLSTPSRAALLTGR (peptide)
peptide: PVSLSTPSRAALLTGR
notes: also called Ser69 oligopeptide; variant of the ASA65-80 peptide in which Cys69 was replaced by a serine
B4: binds [3].

From patent publication US20040229250A1 (SHIRE HUMAN GENETIC THERAPIES, published 2004)
